This is an account of results in US20190134153A1, “IMMUNOMODULATORY EFFECT OF INHALED KINASE INHIBITOR PEPTIDES IN LUNG” (MOERAE MATRIX, INC., priority 2017, published 2019).

Some targets named below: MINK(h) (Homo sapiens, UniProt Q8N4C8); MAPK2(h) (Homo sapiens, UniProt P28482); WNK2(h) (Homo sapiens, UniProt Q9Y3S1); Axl(h) (Homo sapiens, UniProt P30530); DAPK2(h) (Homo sapiens, UniProt Q9UIK4); PKBβ(h) (Homo sapiens, UniProt P31751); Rsk1(h) (Homo sapiens, UniProt Q15418); Flt4(h) (Homo sapiens, UniProt P35916); Aurora-B(h) (Homo sapiens, UniProt Q96GD4); TrkA(h) (Homo sapiens, UniProt P04629); KDR(h) (Homo sapiens, UniProt P35968); PKBα(h) (Homo sapiens, UniProt P31749); GSK3α(h) (Homo sapiens, UniProt P49840).

Common to all, as to assay: Kinase Profiling Assay
What all share (assay type): biochemical
Holding throughout (conditions): 100 μM

The target of a further assay is T1, PhKγ2(h) (Homo sapiens, UniProt P15735).
T1 sequence (P15735 1-406): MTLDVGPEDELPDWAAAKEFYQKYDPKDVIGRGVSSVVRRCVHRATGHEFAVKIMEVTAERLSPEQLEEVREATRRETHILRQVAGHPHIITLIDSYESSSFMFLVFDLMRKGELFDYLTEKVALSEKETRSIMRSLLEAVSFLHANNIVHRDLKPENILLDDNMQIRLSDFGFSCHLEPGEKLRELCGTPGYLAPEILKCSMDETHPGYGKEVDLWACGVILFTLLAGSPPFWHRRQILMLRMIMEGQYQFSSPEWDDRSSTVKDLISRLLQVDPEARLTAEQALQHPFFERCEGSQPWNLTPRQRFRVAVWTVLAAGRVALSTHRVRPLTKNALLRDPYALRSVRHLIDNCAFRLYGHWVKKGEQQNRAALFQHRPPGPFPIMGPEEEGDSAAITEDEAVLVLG

The next assay deals with T2, TSSK2(h) (Homo sapiens, UniProt Q96PF2).
T2 sequence (Q96PF2 1-358): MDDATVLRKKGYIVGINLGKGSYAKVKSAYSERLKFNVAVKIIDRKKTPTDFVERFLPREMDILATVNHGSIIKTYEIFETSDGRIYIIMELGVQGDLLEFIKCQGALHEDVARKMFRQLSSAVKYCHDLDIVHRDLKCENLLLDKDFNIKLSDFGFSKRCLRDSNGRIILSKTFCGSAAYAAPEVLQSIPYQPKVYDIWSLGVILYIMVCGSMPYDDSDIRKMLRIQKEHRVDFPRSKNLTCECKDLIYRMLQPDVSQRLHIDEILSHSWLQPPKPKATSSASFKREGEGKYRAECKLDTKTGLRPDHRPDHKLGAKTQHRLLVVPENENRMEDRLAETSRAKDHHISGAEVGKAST

The target in a further assay is T3, ARK5(h) (Homo sapiens, UniProt O60285).
T3 sequence (O60285 1-661): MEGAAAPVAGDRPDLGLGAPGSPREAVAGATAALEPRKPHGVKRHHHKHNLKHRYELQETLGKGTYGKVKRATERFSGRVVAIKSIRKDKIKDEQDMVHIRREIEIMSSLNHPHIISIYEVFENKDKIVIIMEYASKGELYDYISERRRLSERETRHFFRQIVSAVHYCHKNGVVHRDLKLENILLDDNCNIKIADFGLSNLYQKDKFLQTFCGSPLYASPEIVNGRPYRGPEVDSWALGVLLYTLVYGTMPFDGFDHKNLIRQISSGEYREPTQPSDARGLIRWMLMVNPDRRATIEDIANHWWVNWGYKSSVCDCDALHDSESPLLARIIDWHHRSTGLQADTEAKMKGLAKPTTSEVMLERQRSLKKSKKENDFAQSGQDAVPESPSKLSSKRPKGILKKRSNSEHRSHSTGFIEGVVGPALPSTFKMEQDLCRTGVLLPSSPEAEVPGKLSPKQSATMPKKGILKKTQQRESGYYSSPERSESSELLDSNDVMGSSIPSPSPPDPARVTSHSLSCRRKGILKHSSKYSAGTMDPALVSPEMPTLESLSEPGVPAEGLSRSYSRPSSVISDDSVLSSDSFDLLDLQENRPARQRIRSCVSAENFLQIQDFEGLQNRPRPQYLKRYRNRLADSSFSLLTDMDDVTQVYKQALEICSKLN

Sequence of MINK(h) (Q8N4C8 whole entry): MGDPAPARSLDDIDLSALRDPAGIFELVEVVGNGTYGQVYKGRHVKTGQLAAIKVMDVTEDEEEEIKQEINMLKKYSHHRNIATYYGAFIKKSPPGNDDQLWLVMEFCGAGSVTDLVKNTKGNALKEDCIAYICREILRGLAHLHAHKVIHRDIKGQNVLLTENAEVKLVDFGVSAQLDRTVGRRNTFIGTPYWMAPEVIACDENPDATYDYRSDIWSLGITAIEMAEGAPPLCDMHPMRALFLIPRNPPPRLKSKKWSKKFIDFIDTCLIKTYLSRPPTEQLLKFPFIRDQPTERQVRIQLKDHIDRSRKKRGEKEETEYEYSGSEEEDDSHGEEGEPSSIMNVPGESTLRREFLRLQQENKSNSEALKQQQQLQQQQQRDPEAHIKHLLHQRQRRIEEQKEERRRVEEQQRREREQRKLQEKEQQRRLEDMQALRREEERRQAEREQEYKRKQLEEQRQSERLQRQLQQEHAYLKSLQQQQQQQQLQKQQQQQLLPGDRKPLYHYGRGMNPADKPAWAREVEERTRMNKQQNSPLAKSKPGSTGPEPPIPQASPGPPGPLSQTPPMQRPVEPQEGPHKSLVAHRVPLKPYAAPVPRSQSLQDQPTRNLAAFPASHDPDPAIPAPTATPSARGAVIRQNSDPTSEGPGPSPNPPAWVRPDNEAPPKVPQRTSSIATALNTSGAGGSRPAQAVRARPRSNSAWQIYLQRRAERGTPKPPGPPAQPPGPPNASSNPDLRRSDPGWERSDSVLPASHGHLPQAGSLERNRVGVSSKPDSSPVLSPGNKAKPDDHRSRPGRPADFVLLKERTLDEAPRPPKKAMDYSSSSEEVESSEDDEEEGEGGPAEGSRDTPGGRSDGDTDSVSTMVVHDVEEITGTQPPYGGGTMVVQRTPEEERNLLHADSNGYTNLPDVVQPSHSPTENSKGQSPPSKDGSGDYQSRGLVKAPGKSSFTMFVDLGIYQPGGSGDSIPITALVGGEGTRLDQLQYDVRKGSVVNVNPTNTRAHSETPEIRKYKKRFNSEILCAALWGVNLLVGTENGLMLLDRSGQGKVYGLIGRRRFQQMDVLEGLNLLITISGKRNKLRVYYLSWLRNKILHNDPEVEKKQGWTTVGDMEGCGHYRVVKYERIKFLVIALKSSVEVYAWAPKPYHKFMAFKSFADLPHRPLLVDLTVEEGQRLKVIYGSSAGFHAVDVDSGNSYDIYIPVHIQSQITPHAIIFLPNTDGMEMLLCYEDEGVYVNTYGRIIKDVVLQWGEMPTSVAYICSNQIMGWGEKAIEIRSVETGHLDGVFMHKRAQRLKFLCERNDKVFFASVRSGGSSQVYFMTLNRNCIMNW
Sequence of KDR(h) (P35968 20-1356): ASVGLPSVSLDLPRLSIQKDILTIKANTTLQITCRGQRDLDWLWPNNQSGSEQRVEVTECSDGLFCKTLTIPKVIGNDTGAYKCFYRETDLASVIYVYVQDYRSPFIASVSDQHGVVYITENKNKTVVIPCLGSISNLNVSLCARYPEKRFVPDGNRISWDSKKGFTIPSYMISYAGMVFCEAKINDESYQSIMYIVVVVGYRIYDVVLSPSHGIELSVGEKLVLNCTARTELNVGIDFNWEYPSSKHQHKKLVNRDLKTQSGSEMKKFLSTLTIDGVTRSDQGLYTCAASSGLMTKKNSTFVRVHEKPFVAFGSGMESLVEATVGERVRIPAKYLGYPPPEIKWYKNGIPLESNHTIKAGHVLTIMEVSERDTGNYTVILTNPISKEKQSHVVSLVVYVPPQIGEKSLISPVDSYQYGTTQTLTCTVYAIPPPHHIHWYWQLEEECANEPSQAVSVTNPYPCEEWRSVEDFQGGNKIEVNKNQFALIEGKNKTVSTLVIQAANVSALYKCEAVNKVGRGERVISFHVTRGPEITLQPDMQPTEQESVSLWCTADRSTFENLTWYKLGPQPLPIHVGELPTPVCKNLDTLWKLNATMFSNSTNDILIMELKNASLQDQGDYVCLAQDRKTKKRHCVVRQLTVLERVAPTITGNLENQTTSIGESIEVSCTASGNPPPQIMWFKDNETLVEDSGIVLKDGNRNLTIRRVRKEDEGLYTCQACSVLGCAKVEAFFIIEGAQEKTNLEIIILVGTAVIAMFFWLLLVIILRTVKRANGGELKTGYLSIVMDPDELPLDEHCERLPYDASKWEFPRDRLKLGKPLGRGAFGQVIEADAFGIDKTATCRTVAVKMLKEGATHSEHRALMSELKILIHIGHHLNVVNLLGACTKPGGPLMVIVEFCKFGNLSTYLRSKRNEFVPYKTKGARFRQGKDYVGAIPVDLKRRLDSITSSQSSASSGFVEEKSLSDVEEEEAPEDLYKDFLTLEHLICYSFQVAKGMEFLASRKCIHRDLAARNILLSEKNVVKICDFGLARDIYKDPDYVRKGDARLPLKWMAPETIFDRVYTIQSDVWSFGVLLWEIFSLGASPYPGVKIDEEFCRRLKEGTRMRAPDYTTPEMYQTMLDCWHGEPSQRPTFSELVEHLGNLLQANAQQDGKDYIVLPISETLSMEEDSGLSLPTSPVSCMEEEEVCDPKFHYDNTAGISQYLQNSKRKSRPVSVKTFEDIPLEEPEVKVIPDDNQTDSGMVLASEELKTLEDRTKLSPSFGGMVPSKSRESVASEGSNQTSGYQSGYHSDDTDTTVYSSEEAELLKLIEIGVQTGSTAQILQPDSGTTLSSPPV
Sequence of Rsk1(h) (Q15418 whole entry): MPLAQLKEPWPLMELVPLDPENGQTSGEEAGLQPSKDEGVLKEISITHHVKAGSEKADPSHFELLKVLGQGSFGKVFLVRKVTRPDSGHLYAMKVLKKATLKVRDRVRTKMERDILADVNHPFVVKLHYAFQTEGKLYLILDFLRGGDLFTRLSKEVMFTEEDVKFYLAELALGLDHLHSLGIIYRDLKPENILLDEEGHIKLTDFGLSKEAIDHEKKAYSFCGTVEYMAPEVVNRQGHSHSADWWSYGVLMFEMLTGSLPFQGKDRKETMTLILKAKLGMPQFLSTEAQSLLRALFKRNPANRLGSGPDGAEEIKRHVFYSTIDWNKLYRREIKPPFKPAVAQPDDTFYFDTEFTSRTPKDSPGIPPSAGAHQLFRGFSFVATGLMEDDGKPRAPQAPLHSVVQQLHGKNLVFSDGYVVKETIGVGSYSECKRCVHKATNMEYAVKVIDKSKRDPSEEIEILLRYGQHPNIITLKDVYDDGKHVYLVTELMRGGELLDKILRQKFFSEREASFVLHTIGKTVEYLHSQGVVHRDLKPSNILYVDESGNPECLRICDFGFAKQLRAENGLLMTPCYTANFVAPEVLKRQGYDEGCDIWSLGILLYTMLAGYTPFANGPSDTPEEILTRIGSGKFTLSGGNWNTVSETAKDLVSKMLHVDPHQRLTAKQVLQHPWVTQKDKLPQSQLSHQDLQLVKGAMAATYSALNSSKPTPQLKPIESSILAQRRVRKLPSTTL
Sequence of PKBβ(h) (P31751 whole entry): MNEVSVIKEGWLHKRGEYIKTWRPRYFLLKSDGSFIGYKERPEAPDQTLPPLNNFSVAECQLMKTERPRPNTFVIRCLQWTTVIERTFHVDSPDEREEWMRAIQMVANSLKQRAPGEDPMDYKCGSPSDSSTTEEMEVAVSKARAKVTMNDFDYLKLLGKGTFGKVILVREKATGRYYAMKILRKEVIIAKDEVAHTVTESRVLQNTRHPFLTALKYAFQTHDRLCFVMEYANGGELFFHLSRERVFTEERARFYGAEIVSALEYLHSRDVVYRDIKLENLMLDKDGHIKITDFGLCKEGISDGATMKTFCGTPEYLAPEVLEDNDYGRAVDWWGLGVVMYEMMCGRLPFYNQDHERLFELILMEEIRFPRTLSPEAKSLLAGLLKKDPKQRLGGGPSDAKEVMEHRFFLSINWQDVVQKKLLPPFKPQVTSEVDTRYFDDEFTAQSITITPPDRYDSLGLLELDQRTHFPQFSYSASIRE
Sequence of DAPK2(h) (Q9UIK4 whole entry): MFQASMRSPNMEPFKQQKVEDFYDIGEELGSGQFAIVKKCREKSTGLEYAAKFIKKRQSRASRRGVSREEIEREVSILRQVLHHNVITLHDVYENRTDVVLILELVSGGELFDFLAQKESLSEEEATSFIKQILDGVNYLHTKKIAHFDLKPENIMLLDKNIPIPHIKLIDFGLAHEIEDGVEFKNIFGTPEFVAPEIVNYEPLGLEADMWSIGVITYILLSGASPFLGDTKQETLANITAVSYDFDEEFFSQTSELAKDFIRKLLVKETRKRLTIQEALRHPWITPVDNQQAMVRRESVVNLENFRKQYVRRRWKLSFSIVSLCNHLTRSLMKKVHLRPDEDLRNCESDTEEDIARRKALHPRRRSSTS
Sequence of PKBα(h) (P31749 whole entry): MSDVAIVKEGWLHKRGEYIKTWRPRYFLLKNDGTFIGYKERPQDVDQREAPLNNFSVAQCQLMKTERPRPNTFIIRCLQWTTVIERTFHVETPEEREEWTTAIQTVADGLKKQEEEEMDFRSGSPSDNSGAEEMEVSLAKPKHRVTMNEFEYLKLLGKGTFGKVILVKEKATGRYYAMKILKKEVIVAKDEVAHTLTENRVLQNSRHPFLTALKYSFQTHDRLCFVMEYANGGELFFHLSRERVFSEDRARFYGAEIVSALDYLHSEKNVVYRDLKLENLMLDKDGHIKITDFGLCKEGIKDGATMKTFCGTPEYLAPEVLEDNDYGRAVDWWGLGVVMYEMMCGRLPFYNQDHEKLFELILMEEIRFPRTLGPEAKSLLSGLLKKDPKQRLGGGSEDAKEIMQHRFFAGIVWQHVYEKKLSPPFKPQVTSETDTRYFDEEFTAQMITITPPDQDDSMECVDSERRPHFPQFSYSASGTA

Consider HRRIKAWLKKIKALARQLGVAA [MMI-0500], for which the “% activity” value with PhKγ2(h) amounted to 16%; with MINK(h) it was 5%; with MAPK2(h) it was 60%; with WNK2(h), 8%; with Axl(h) it was 12%; with DAPK2(h), 3%. Also, the “% activity” value is given as 92% with TSSK2(h); 21% with PKBβ(h); 34% with Rsk1(h); 73% with Flt4(h); 20% with ARK5(h); 5% with Aurora-B(h). In addition, the “% activity” value in the assay with TrkA(h) was determined as 24%; in the assay with KDR(h) it was 15%; with PKBα(h) it was 30%; with GSK3α(h), 175%.
In the case of YARAAARQARAKALNRQLGVA [MMI-0200], the “% activity” value in the assay with PhKγ2(h) stood at 86%; with WNK2(h), 94%; with Axl(h), 99%; with DAPK2(h), 92%; in the assay with TSSK2(h), 91%; with PKBβ(h), 250%. Besides, the “% activity” value in the assay with ARK5(h) is 93%; with Aurora-B(h) it was 166%; in the assay with KDR(h), 110%; with PKBα(h) it was 110%.
Consider KAFAKLAARLYRKALARQLGVAA [MMI-0400], for which the “% activity” value with PhKγ2(h) came out at 38%; with MINK(h), 52%; in the assay with MAPK2(h), 93%; with WNK2(h), 54%; with Axl(h), 41%; in the assay with DAPK2(h), 16%. Also, the “% activity” value was determined as 94% with TSSK2(h); 98% in the assay with PKBβ(h); 54% with Rsk1(h); 89% with Flt4(h); 69% with ARK5(h); 150% in the assay with Aurora-B(h). For the same sequence, the “% activity” value was determined as 17% with TrkA(h), 94% with KDR(h), 67% with PKBα(h) and 164% in the assay with GSK3α(h).
In the case of FAKLAARLYRKALARQLGVAA [MMI-0300], the “% activity” value amounted to 46% with PhKγ2(h); 48% in the assay with MINK(h); 98% with MAPK2(h); 64% with WNK2(h); 52% in the assay with Axl(h); 32% with DAPK2(h). Also, the “% activity” value with TSSK2(h) stood at 98%; with PKBβ(h), 84%; with Rsk1(h), 46%; in the assay with Flt4(h) it was 83%; with ARK5(h), 78%; in the assay with Aurora-B(h), 128%. Also, the “% activity” value with TrkA(h) is given as 25%; in the assay with KDR(h) it was 101%; with PKBα(h) it was 57%; with GSK3α(h), 157%.
